How the values were obtained:
[1] = target: T1, Ku70/Ku80 heterodimer FL (baculovirus) (human, UniProt P12956;P13010 1-609;1-718); assay: MST; MST: 50 mM Tris pH 8.0, 50 mM NaCl, 1 mM DTT, 24 C, 40 nM FAM-RNA; EMSA: 25 mM Hepes-KOH pH 7.5, 50 mM NaCl, 1 mM DTT, 1 mM EDTA, 10% glycerol, 0.1 uM BSA, room temperature, 25 min; conditions: protein: recombinant, tags: His (Ku80), copies: 1;1, label: 5'-FAM
[2] = target: T2, Ku70/Ku80 heterodimer FL (baculovirus);XLF (human;human?, UniProt P12956;P13010;Q9H9Q4 1-609;1-718;1-299, |); assay: EMSA; supershift; Ku preparation not stated; MST: 50 mM Tris pH 8.0, 50 mM NaCl, 1 mM DTT, 24 C, 40 nM FAM-RNA; EMSA: 25 mM Hepes-KOH pH 7.5, 50 mM NaCl, 1 mM DTT, 1 mM EDTA, 10% glycerol, 0.1 uM BSA, room temperature, 25 min; conditions: protein: recombinant;recombinant; tags: His (Ku80);; copies: 1;1;2; label: 3'-FAM on lower strand; blunt
T2 sequence (P12956 whole entry, chain 1 of 3): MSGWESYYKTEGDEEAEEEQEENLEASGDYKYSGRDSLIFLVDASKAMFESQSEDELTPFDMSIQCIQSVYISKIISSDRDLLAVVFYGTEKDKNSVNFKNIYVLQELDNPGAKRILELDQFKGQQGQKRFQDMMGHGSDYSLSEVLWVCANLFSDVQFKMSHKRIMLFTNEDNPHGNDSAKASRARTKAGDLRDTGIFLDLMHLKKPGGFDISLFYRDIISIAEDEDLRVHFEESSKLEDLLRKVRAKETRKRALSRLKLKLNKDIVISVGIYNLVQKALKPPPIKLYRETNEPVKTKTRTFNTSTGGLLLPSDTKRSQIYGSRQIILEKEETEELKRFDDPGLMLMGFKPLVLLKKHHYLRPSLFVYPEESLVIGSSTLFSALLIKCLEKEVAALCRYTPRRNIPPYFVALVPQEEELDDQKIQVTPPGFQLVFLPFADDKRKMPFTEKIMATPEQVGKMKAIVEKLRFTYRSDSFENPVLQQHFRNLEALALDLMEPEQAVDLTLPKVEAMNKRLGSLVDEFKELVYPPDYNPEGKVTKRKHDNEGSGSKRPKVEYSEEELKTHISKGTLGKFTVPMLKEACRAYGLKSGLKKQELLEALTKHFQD
T2 sequence (P13010 1-718, chain 2 of 3): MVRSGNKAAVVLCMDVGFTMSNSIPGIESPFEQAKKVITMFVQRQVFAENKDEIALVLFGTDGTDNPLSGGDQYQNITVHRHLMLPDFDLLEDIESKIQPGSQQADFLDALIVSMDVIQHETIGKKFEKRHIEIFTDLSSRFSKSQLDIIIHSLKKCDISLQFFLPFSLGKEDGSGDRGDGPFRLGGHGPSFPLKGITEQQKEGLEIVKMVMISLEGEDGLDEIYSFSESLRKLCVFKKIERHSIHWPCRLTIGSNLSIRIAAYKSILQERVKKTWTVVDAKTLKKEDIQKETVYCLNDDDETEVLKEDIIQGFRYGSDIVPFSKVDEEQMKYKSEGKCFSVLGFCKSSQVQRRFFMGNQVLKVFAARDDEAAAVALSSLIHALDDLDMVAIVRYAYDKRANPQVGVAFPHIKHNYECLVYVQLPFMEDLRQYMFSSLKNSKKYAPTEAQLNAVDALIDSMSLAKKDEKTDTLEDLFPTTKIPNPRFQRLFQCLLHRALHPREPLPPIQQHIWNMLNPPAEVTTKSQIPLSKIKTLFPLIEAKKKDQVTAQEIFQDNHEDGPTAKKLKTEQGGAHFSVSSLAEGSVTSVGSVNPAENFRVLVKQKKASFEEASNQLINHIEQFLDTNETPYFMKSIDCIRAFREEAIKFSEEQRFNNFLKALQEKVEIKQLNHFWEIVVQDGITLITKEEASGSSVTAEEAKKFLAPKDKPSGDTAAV
T2 sequence (Q9H9Q4 whole entry, chain 3 of 3): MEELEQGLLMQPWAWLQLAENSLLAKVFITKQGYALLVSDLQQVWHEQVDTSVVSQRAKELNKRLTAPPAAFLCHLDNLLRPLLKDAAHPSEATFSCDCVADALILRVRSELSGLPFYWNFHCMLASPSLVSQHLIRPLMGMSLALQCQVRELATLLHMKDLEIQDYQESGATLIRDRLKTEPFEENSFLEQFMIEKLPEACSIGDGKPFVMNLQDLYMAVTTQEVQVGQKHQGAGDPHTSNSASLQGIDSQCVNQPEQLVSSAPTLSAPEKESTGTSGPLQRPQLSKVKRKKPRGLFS

[3] = target: Ku70/Ku80 heterodimer FL (baculovirus);PAXX (human;human?, UniProt P12956;P13010;Q9BUH6 1-609;1-718;1-204, |); assay: EMSA; supershift; MST: 50 mM Tris pH 8.0, 50 mM NaCl, 1 mM DTT, 24 C, 40 nM FAM-RNA; EMSA: 25 mM Hepes-KOH pH 7.5, 50 mM NaCl, 1 mM DTT, 1 mM EDTA, 10% glycerol, 0.1 uM BSA, room temperature, 25 min; conditions: protein: recombinant;recombinant; tags: His (Ku80);GST cleaved; copies: 1;1;2; label: 3'-FAM on lower strand; blunt
Sequence of Ku70/Ku80 heterodimer FL (baculovirus);PAXX (P12956 whole entry, chain 1 of 3): as the sequence (P12956 whole entry, chain 1 of 3) above
Sequence of Ku70/Ku80 heterodimer FL (baculovirus);PAXX (P13010 1-718, chain 2 of 3): as the sequence (P13010 1-718, chain 2 of 3) above
Sequence of Ku70/Ku80 heterodimer FL (baculovirus);PAXX (Q9BUH6 whole entry, chain 3 of 3): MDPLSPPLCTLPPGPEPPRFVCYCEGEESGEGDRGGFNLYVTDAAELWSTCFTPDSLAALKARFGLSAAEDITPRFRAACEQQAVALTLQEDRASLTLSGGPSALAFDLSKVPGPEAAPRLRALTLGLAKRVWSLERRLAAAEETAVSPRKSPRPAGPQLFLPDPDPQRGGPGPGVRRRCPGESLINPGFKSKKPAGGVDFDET

[4] = target: Ku dCTR (human, UniProt P12956;P13010 1-609;1-569); assay: MST; MST: 50 mM Tris pH 8.0, 50 mM NaCl, 1 mM DTT, 24 C, 40 nM FAM-RNA; EMSA: 25 mM Hepes-KOH pH 7.5, 50 mM NaCl, 1 mM DTT, 1 mM EDTA, 10% glycerol, 0.1 uM BSA, room temperature, 25 min; conditions: protein: recombinant; copies: 1;1; label: 5'-FAM; hairpin with bulge
Sequence of Ku dCTR (P12956 whole entry, chain 1 of 2): as the sequence (P12956 whole entry, chain 1 of 3) above
Sequence of Ku dCTR (P13010 1-569, chain 2 of 2): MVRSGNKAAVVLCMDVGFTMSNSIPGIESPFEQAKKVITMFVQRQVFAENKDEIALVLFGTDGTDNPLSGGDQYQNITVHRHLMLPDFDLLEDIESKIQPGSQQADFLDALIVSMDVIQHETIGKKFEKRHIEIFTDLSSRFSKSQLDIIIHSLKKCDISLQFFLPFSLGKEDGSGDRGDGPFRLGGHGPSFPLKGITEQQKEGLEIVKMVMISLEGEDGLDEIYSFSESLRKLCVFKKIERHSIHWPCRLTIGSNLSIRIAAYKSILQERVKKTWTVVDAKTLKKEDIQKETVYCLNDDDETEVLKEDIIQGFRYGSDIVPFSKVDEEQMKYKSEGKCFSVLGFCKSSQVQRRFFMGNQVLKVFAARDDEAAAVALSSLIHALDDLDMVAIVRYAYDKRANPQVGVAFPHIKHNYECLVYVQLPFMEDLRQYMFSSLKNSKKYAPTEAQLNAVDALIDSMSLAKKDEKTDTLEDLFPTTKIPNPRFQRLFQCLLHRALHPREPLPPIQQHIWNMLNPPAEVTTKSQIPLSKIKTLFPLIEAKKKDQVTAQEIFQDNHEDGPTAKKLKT

[5] = target: T2, Ku70/Ku80 heterodimer FL …; assay: EMSA; supershift; MST: 50 mM Tris pH 8.0, 50 mM NaCl, 1 mM DTT, 24 C, 40 nM FAM-RNA; EMSA: 25 mM Hepes-KOH pH 7.5, 50 mM NaCl, 1 mM DTT, 1 mM EDTA, 10% glycerol, 0.1 uM BSA, room temperature, 25 min; conditions: protein: recombinant;recombinant, tags: His (Ku80);, copies: 1;1;2, label: 5'-FAM
[6] = target: T1, Ku70/Ku80 heterodimer FL (baculovirus); assay: EMSA; Ku preparation not stated; MST: 50 mM Tris pH 8.0, 50 mM NaCl, 1 mM DTT, 24 C, 40 nM FAM-RNA; EMSA: 25 mM Hepes-KOH pH 7.5, 50 mM NaCl, 1 mM DTT, 1 mM EDTA, 10% glycerol, 0.1 uM BSA, room temperature, 25 min; conditions: protein: recombinant; tags: His (Ku80); copies: 1;1; label: 5'-FAM; G4
[7] = target: Ku5D (human, UniProt P12956;P13010 1-609;1-718, T305D;S306D;T307D;S314D;T316D); assay: MST; 20-fold weaker than WT; MST: 50 mM Tris pH 8.0, 50 mM NaCl, 1 mM DTT, 24 C, 40 nM FAM-RNA; EMSA: 25 mM Hepes-KOH pH 7.5, 50 mM NaCl, 1 mM DTT, 1 mM EDTA, 10% glycerol, 0.1 uM BSA, room temperature, 25 min; conditions: protein: recombinant; copies: 1;1; label: 5'-FAM on strand 1; fork; 42-mer/29-mer
Sequence of Ku5D (P12956 whole entry T305D/S306D/T307D/S314D/T316D, chain 1 of 2): as the sequence (P12956 whole entry, chain 1 of 3) above, with T305D, S306D, T307D, S314D, T316D counted along it
Sequence of Ku5D (P13010 1-718, chain 2 of 2): as the sequence (P13010 1-718, chain 2 of 3) above

[8] = target: T1, Ku70/Ku80 heterodimer FL (baculovirus); assay: MST; Hill 1.0; MST: 50 mM Tris pH 8.0, 50 mM NaCl, 1 mM DTT, 24 C, 40 nM FAM-RNA; EMSA: 25 mM Hepes-KOH pH 7.5, 50 mM NaCl, 1 mM DTT, 1 mM EDTA, 10% glycerol, 0.1 uM BSA, room temperature, 25 min; conditions: protein: recombinant; tags: His (Ku80); copies: 1;1; label: 5'-FAM stated for MST RNAs
[9] = target: T1, Ku70/Ku80 heterodimer FL (baculovirus); assay: MST; Hill 1.75; MST: 50 mM Tris pH 8.0, 50 mM NaCl, 1 mM DTT, 24 C, 40 nM FAM-RNA; EMSA: 25 mM Hepes-KOH pH 7.5, 50 mM NaCl, 1 mM DTT, 1 mM EDTA, 10% glycerol, 0.1 uM BSA, room temperature, 25 min; conditions: protein: recombinant; tags: His (Ku80); copies: 1;1; label: 5'-FAM; blunt

T1 sequence (P12956 whole entry, chain 1 of 2): as the sequence (P12956 whole entry, chain 1 of 3) above
T1 sequence (P13010 1-718, chain 2 of 2): as the sequence (P13010 1-718, chain 2 of 3) above

## CCCUCCGUCUCCUUGACUCUGGG (structured_RNA) [SL1]
[1]; hairpin
  Kd: 1.69 ± 0.7 µM

B1: 25bp duplex DNA (dsDNA)
DNA 1: AGCATTGACTGGCATCGTAGCATCC
DNA 2: GGATGCTACGATGCCAGTCAATGCT
[2]
  binding result: binds
[3]
  binding result: binds

## UGACUUUUCCUUGCUCAAUAGAAUGAGAAGGAGGUGGCG (structured_RNA) [SL2]
[4]
  Kd: 1.02 ± 0.18 µM
[1]; hairpin with bulge
  Kd: 0.9 ± 0.17 µM
[5]; hairpin with bulge
  binding result: binds

## UAGGGUUAGGGU (structured_RNA) [TERRA G-quadruplex]
[1]; G4 (multimeric)
  Kd: 0.43 ± 0.18 µM

## TTAGGGTTAGGGTTAGGGTTAGGG (structured_DNA) [DNA G-quadruplex]
[6]
  binding result: no binding

B2: Fork substrate (dsDNA)
DNA 1: CGCGCCCAGCTTTCCCAGCTAATAAACTAAAAACTCCTAAGG
DNA 2: CCTTAGGAGTTTTTAGTTTATTGGGCGCG
[7]
  Kd: ~15 µM

## UGACUGGAGGAAGGAGUAUAGAAACUCUUCCUUUUGGCG (structured_RNA) [SL2-BT]
[1]; hairpin
  Kd: 6.05 ± 9.4 µM

## AACCGUAGACCCCGUCGACCGUUAUCUCCACUACGUCGGGGGACUGGGA (structured_RNA) [SL3-BT]
[1]; hairpin
  Kd: 1.87 ± 0.36 µM

## AAGGCUAGACCGGGGGCUCGCAUUUCUUUUUUUGCAGCUGCCACUGCCA (structured_RNA) [SL3-LM]
[1]; hairpin
  Kd: 2.37 ± 1.04 µM

## AAGGCUAGACCGGGGGCUCGCAUAUCUCCACUUGCAGCUGCCACUGCCA (structured_RNA) [SL3]
[1]; hairpin with bulge
  Kd: 0.84 ± 0.45 µM
[5]; hairpin with bulge
  binding result: binds

## CCUGGGGUAGGAGAGGGUAUGGGGACCAGGGCACU (structured_RNA) [LINP1 GQ1]
[1]; G4
  Kd: 0.11 ± 0.04 µM
[5]; G4
  binding result: binds

B3: LINP1 (1-300) (structured_RNA)
RNA: CCCUCCGUCUCCUUGACUCUGGGUGGGCUGUGUGACUUUUCCUUGCUCAAUAGAAUGAGAAGGAGGUGGCGCACCGGCUACAAGGCUAGACCGGGGGCUCGCAUAUCUCCACUUGCAGCUGCCACUGCCAUUAGAAGAACUUGCUCAGCCAGCUCCUGGGCCCCAGGAAAAGGACAAGUGUCACCCAGAACAGAGCCACCUCCAGCUGCACUCAGCUCCAGAAGCUGGCCCAGCCGGUCCAGUACACCUUUUAAAUAAUGUCCUCUACGUGCCGGUGUGGAAGUAGCCCGGAUGCAAUUG
[8]
  Kd: 1.92 ± 0.33 µM

## UGACUUUUCCUUGCUCAUUUUUUUGAGAAGGAGGUGGCG (structured_RNA) [SL2-LM]
[1]; hairpin
  Kd: 1.62 ± 0.47 µM

B4: d50 DNA (dsDNA)
DNA 1: CTCTTGGTGATTATGGTTGCAATACATTTAATTTCATTATCAATTAG
DNA 2: CTAATTGATAATGAAATTAAATGTATTGCAACCATAATCACCAAGAG
[9]
  Kd: 0.019 ± 0.019 µM

Source: publication PMC7641761
